Assay results from patent publication US20130266605A1, “PEPTIDE INHIBITORS OF CD40L SIGNALING AND USES THEREFOR” (PHYLOGICA LIMITED, priority 2010, published 2013).
Entries after “also recorded” stand apart in the source; their conditions may differ. Where two headings read alike, the source gives them in different places. Positions of bridges follow the written chain, without caps; N, C: chain ends. Residues, ends and D or L forms follow the SMILES beside them. Chains are numbered I, II in the order given. No end group written: not given here. PEG = not defined here

What was measured:
[1] = tested on: LPS-induced expression of CD86 mediated by the Toll-like receptors TLR 2/4; test: LPS-induced CD86 expression control assay; type: cell-based; conditions: in words; specificity control; listed as M1—18S
Protocol: (§1) As a control in these assays, LPS-induced expression of CD86 mediated by the Toll-like receptors TLR 2/4, and TNFα-induced cytoxicity, were also assayed to exclude effects mediated by ligands other than CD40L.

[2] = target: CD40L-induced CD86 expression on primary B-cells (UniProt P29965); test: Inhibition of CD40L-induced CD86 expression on primary B-cells (FACS); conditions: in words
Chain of CD40L-induced CD86 expression on primary B-cells (P29965 whole entry): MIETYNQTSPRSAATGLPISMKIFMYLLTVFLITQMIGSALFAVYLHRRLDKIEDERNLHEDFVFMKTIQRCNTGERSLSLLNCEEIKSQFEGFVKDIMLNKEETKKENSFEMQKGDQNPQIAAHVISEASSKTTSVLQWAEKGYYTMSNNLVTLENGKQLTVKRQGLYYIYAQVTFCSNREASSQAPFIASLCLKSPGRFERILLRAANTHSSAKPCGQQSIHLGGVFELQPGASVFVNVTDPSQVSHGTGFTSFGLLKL
Chain of CD40L-induced CD86 expression on primary B-cells (P25942 21-277 partner): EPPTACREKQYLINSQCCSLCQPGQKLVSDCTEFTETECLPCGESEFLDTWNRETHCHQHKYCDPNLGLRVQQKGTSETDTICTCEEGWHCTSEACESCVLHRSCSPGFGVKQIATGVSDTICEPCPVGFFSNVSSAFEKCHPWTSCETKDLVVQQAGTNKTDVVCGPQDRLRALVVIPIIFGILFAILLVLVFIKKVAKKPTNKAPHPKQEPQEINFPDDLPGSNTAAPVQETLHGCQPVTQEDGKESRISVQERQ
Protocol: In one example, the ability of a peptide, analog or derivative of the invention to inhibit or reduce or delay expression of CD86 on primary B-cells was determined in the presence and absence of the peptides, analogs and derivatives of the invention. In particular, CD86 expression was determined by FACS.

TNFα-induced cytoxicity = test: TNFα-induced cytotoxicity control assay; type: cell-based; conditions: in words, specificity control
Protocol: as §1

CD40L-CD40 interaction = target: T1, CD40L-CD40 interaction (Homo sapiens, UniProt P29965); test: Chemiluminescent proximity assay (Alphascreen); type: binding; conditions: Alphascreen proximity assay; monomeric and dimeric peptides (Table 5); read-out: EC50
T1 sequence (P29965 113-261 limits assumed): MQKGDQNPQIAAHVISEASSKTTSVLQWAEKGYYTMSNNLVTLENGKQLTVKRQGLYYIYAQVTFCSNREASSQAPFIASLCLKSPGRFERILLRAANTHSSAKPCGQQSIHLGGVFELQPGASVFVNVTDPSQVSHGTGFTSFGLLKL
Protocol: In one example, the Alphascreen assay (PerkinElmer) was employed according to the manufacturer's instructions.
Homodimers and heterodimers were also assayed by chemiluminescent proximity assay for their ability to inhibit CD40L-CD40 interaction.

CD40 ligand [3] = target: T2, CD40 ligand (UniProt P29965 108-261, limits assumed); test: Alphascreen, PEGylated peptide, inhibition of CD40L/CD40-Fc
T2 construct: Used immobilised, soluble, or biotinylated on streptavidin beads; also called CD154; soluble CD40L
T2 sequence (looked up): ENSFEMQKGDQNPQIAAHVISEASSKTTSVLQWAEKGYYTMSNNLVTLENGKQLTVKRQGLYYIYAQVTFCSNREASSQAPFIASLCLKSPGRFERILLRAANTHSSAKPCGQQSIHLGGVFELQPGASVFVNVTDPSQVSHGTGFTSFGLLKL

CD40 ligand [4] = target: T2, CD40 ligand; test: Alphascreen proximity assay, peptide titrated; blocked interaction: CD40L with CD40
CD40 ligand [5] = target: T2, CD40 ligand; test: Alphascreen proximity assay, peptide titrated against 0.75nM CD40L; blocked interaction: CD40L with CD40
CD40 ligand [6] = target: T2, CD40 ligand; test: cell-based or functional assay
CD40 ligand [7] = target: T2, CD40 ligand; test: Alphascreen proximity assay, inhibition of CD40L-CD40
CD40 ligand, P29965 [8] = target: T3, CD40 ligand, P29965; test: Octet Red label-free (BLI)
T3 chain: T2 sequence (looked up)

CD40 ligand, P29965 [9] = target: T3, CD40 ligand, P29965; test: Alphascreen, unmodified peptide, inhibition of CD40L/CD40-Fc
CD40 ligand [10] = target: T2, CD40 ligand; test: Alphascreen proximity assay, peptide dimer titrated against 0.75nM CD40L; blocked interaction: CD40L with CD40; signal falls from about 23000 to about 4000 units
CD40 ligand [11] = target: T2, CD40 ligand; test: from the KD values of Table 2 (Octet Red)
CD40 ligand [12] = target: T2, CD40 ligand; test: Octet Red label-free (BLI)
CD40 ligand [13] = target: T2, CD40 ligand; test: Alphascreen proximity assay, peptide dimer titrated against 0.75nM CD40L; blocked interaction: CD40L with CD40; signal falls from about 12500 to about 4000 units
CD40 ligand [14] = target: T2, CD40 ligand; test: Alphascreen proximity assay (1hr), peptide titrated against 0.75nM CD40L; blocked interaction: CD40L with CD40; signal falls from about 27500 to about 5000 units
CD40 ligand [15] = target: T2, CD40 ligand; test: cell-based or functional assay; remark: listed apart in the source
CD40 ligand [16] = target: T2, CD40 ligand; test: Alphascreen, unmodified peptide, inhibition of CD40L/CD40-Fc
CD40 ligand [17] = target: T2, CD40 ligand; test: Octet Red label-free (BLI); remark: listed apart in the source
CD40 ligand [18] = target: T2, CD40 ligand; test: phage-displayed peptide on bound CD40L, soluble CD40L as competitor
CD40 ligand [19] = target: T2, CD40 ligand; test: Alphascreen proximity assay (1hr), peptide titrated against 0.75nM CD40L; blocked interaction: CD40L with CD40; signal falls from about 21000 to about 3000 units

CC[C@H](C)[C@H](NC(=O)[C@H](CO)NC(=O)[C@H](Cc1c[nH]c2ccccc12)NC(=O)[C@H](CCC(N)=O)NC(=O)[C@@H](NC(=O)[C@@H]1CCCN1C(=O)[C@H](Cc1ccccc1)NC(=O)[C@H](Cc1ccccc1)NC(=O)[C@H](Cc1c[nH]c2ccccc12)NC(=O)CNC(=O)[C@H](Cc1ccc(O)cc1)NC(=O)[C@H](CCCCN)NC(=O)[C@H](CC(C)C)NC(=O)[C@@H](NC(=O)[C@H](Cc1c[nH]cn1)NC(=O)[C@H](CO)NC(=O)[C@H](CCCNC(=N)N)NC(=O)[C@H](Cc1ccc(O)cc1)NC(=O)[C@@H]1CCCN1C(=O)[C@@H](NC(=O)[C@H](Cc1ccccc1)NC(=O)[C@@H]1CCCN1C(=O)[C@@H](N)CC(C)C)C(C)C)C(C)C)C(C)C)C(=O)N[C@@H](Cc1ccccc1)C(=O)N[C@@H](C)C(=O)N[C@H](C(=O)N[C@@H](CC(C)C)C(=O)N1CCC[C@H]1C(=O)N[C@@H](Cc1ccccc1)C(=O)N[C@@H](CCC(N)=O)C(=O)N[C@@H](Cc1ccc(O)cc1)C(=O)N[C@@H](CC(C)C)C(=O)N[C@@H](Cc1c[nH]cn1)C(=O)N[C@@H](CCCNC(=N)N)C(=O)N[C@@H](CO)C(=O)N[C@@H](CCCNC(=N)N)C(=O)O)C(C)C [CD40L M1_18s] (H-LPFVPYRSHVLKYGWFFPVQWSIFAVLPFQYLHRSR-OH; N-terminus and C-terminus assumed)
inhibition of LPS-induced CD86 expression [1]: lack of concentration-dependent inhibition; also recorded: no significant inhibition
inhibition of CD40L-induced CD86 expression on primary B-cells [2]: concentration-dependent inhibition
significant inhibition of TNFα-induced cell death / cytoxicity (TNFα-induced cytoxicity; listed as M1—18*S): lack of inhibition
significant inhibition of TNFα-induced cell death / cytoxicity (TNFα-induced cytoxicity; listed as M1—18S): none

CC[C@H](C)[C@H](NC(=O)[C@H](CO)NC(=O)[C@H](Cc1ccccc1)NC(=O)[C@@H](NC(=O)[C@H](CC(N)=O)NC(=O)[C@H](CCCCN)NC(=O)[C@@H](NC(=O)[C@H](CO)NC(=O)[C@H](Cc1ccccc1)NC(=O)[C@@H]1CCCN1C(=O)[C@@H](N)Cc1c[nH]cn1)[C@@H](C)CC)C(C)C)C(=O)N[C@@H](Cc1c[nH]c2ccccc12)C(=O)N[C@@H](CC(N)=O)C(=O)N[C@@H](Cc1ccccc1)C(=O)N[C@@H](Cc1ccccc1)C(=O)N[C@@H](CO)C(=O)N[C@H](C(=O)N[C@@H](Cc1ccc(O)cc1)C(=O)O)C(C)C [CD40L M1_6s] (H-HPFSIKNVFSIWNFFSVY-OH; N-terminus and C-terminus assumed)
EC50 (CD40L-CD40 interaction): 0.122 to 0.323 nM
significant inhibition of TNFα-induced cell death / cytoxicity (TNFα-induced cytoxicity): lack of inhibition and none

{PEG}-SIQYHWRYSRFKYYFQLIWVYYCHV (reading uncertain) [PEGylated CD40L M1_82]
EC50 (CD40 ligand [3]): 120 nM

CHPFSIKNVFSIWNFFSVY [Cys_M1_6S]
IC50 (read off the curve) (CD40 ligand [4]): ~300 nM
IC50 (read off the curve) (CD40 ligand [5]): ~300 nM
EC50, inhibition of CD40L-induced CD86 expression on primary B-cells (CD40 ligand [6]): 306 nM
EC50 (CD40 ligand [7]): 0.265 nM

RIESLEGEMWLINPFNGETLDEHTLEVWLK (modifications not checked) [CD40L M8_748]
Kd (CD40 ligand, P29965 [8]): 5 nM
EC50 (CD40 ligand, P29965 [9]): 184 nM

{PEG}-PFTWRPTIFWIIQLIVYMRHF (reading uncertain) [PEGylated CD40L M7_206]
EC50 (CD40 ligand [3]): 88 nM

B1: Cys_M1_6S-Cys_M1_9S heterodimer (peptide)
peptide 1: CHPFSIKNVFSIWNFFSVY
peptide 2: CPPRYNLFFLFRFYSSFRRDYLYF
modifications: disulfide I:1-II:1
notes: also called 6-9 dimer
EC50 (CD40 ligand [10]): 30 nM
EC50, inhibition of CD40L-induced CD86 expression on primary B-cells (CD40 ligand [6]): 35 nM
EC50 (CD40 ligand [7]): 0.03 nM

B2: CD40L D1_0014 (peptide)
peptide: PFTWRPTIFWIIQLIVYMRHFGGGGSRSELLRENICRYVSLFDHPLQRNTPLDELRFVIFDTETSGFDLVKDRILSIR
notes: Single-chain fusion of two peptide monomers; also called heterodimeric peptide of CD40L M1-206 and a second monomer with tetra-glycine spacer
fold higher affinity than the base monomeric peptide CD40L M1-206 (CD40 ligand [11]): 6 fold

PRWVRNRFYSLFVPSGVQRGGIHLWFSNWVR (Cys-to-Ser derivative) [CD40L M1_50s]
Kd (CD40 ligand [12]): 600 nM

B3: Cys_M1_6S homodimer (peptide)
peptide: CHPFSIKNVFSIWNFFSVY
modifications: also: homodimer: disulfide between the N-terminal cysteines of two chains
notes: also called 6-6 dimer; homodimer of the Phylomer peptide M1-6
EC50 (CD40 ligand [13]): 48.9 nM
EC50, inhibition of CD40L-induced CD86 expression on primary B-cells (CD40 ligand [6]): 48.9 nM
EC50 (CD40 ligand [7]): 0.0489 nM

B4: CD40L M8_747 (peptide)
peptide: LAEHAVWSLKCFPDWEWYNINIFGTDDPNHFWVECDGHGKILFPGYPEGYYENHFLHSFELED
modifications: not checked
Kd (CD40 ligand, P29965 [8]): 8 nM
EC50 (CD40 ligand, P29965 [9]): 197 nM

HPFSIKNVFSIWNFFSVY (Cys-to-Ser derivative) [CD40L M1_6s]
IC50 (read off the curve) (CD40 ligand [4]): ~300 nM
IC50 (read off the curve) (CD40 ligand [5]): ~300 nM
EC50, inhibition of CD40L-induced CD86 expression on primary B-cells (CD40 ligand [6]): 323 nM

B5: M7_189S (peptide)
peptide: LLLFFFSPPFSIFSFSLTTLS
notes: Cys-to-Ser derivative; also called M1-189Sa
EC50 (CD40 ligand [14]): 176 nM
EC50, inhibition of CD40L-induced CD86 expression on primary B-cells (CD40 ligand [6]): 176 nM
EC50 (CD40 ligand [7]): 0.176 nM

DAAGREFFQIAGLFSFRHHWWQA [CD40L M1_30s]
Kd (CD40 ligand [12]): 400 nM

LPFVPYRSHVLKYGWFFPVQWSIFAVLPFQYLHRSR [CD40L M1_18s]
EC50, inhibition of CD40L-induced expression of CD86 on primary B-cells (FACS) (CD40 ligand [15]): ~743 nM
EC50, inhibition of CD40L-induced CD86 expression on primary B-cells (CD40 ligand [6]): 743 nM

LPFVPYRSHVLKYGWFFPVQWSIFAVLPFQYLHRCR (Base peptide) [CD40L M1_18]
IC50, inhibition of CD40L-induced expression of CD86 on primary B-cells (CD40 ligand [15]): < 500 nM
EC50 (CD40 ligand [16]): 350 nM
Kd (CD40 ligand [17]): 2.3 nM
IC50 (CD40 ligand [18]): 25 nM

B6: CD40L M1_9s (peptide)
peptide: PPRYNLFFLFRFYSSFRRDYLYF
notes: Cys-to-Ser derivative; also called M1-9Sa
EC50 (CD40 ligand [19]): 564 nM
EC50, inhibition of CD40L-induced CD86 expression on primary B-cells (CD40 ligand [6]): 564 nM
EC50 (CD40 ligand [7]): 0.564 nM
